# Assay results: paper PMC3919598
# B1: Fanconi anemia complementation group A protein (FANCA) (natural protein)
# chain: MSDSWVPNSASGQDPGGRRRAWAELLAGRVKREKYNPERAQKLKESAVRLLRSHQDLNALLLEVEGPLCKKLSLSKVIDCDSSEAYANHSSSFIGSALQDQASRLGVPVGILSAGMVASSVGQICTAPAETSHPVLLTVEQRKKLSSLLEFAQYLLAHSMFSRLSFCQELWKIQSSLLLEAVWHLHVQGIVSLQELLESHPDMHAVGSWLFRNLCCLCEQMEASCQHADVARAMLSDFVQMFVLRGFQKNSDLRRTVEPEKMPQVTVDVLQRMLIFALDALAAGVQEESSTHKIVRCWFGVFSGHTLGSVISTDPLKRFFSHTLTQILTHSPVLKASDAVQMQREWSFARTHPLLTSLYRRLFVMLSAEELVGHLQEVLETQEVHWQRVLSFVSALVVCFPEAQQLLEDWVARLMAQAFESCQLDSMVTAFLVVRQAALEGPSAFLSYADWFKASFGSTRGYHGCSKKALVFLFTFLSELVPFESPRYLQVHILHPPLVPGKYRSLLTDYISLAKTRLADLKVSIENMGLYEDLSSAGDITEPHSQALQDVEKAIMVFEHTGNIPVTVMEASIFRRPYYVSHFLPALLTPRVLPKVPDSRVAFIESLKRADKIPPSLYSTYCQACSAAEEKPEDAALGVRAEPNSAEEPLGQLTAALGELRASMTDPSQRDVISAQVAVISERLRAVLGHNEDDSSVEISKIQLSINTPRLEPREHMAVDLLLTSFCQNLMAASSVAPPERQGPWAALFVRTMCGRVLPAVLTRLCQLLRHQGPSLSAPHVLGLAALAVHLGESRSALPEVDVGPPAPGAGLPVPALFDSLLTCRTRDSLFFCLKFCTAAISYSLCKFSSQSRDTLCSCLSPGLIKKFQFLMFRLFSEARQPLSEEDVASLSWRPLHLPSADWQRAALSLWTHRTFREVLKEEDVHLTYQDWLHLELEIQPEADALSDTERQDFHQWAIHEHFLPESSASGGCDGDLQAACTILVNALMDFHQSSRSYDHSENSDLVFGGRTGNEDIISRLQEMVADLELQQDLIVPLGHTPSQEHFLFEIFRRRLQALTSGWSVAASLQRQRELLMYKRILLRLPSSVLCGSSFQAEQPITARCEQFFHLVNSEMRNFCSHGGALTQDITAHFFRGLLNACLRSRDPSLMVDFILAKCQTKCPLILTSALVWWPSLEPVLLCRWRRHCQSPLPRELQKLQEGRQFASDFLSPEAASPAPNPDWLSAAALHFAIQQVREENIRKQLKKLDCEREELLVFLFFFSLMGLLSSHLTSNSTTDLPKAFHVCAAILECLEKRKISWLALFQLTESDLRLGRLLLRVAPDQHTRLLPFAFYSLLSYFHEDAAIREEAFLHVAVDMYLKLVQLFVAGDTSTVSPPAGRSLELKGQGNPVELITKARLFLLQLIPRCPKKSFSHVAELLADRGDCDPEVSAALQSRQQAAPDADLSQEPHLF
# Target: MUS81-EME1 complex (human) (UniProt Q96NY9)
# Chain of UniProt Q96NY9 (Q96NY9 whole entry, chain 1 of 2): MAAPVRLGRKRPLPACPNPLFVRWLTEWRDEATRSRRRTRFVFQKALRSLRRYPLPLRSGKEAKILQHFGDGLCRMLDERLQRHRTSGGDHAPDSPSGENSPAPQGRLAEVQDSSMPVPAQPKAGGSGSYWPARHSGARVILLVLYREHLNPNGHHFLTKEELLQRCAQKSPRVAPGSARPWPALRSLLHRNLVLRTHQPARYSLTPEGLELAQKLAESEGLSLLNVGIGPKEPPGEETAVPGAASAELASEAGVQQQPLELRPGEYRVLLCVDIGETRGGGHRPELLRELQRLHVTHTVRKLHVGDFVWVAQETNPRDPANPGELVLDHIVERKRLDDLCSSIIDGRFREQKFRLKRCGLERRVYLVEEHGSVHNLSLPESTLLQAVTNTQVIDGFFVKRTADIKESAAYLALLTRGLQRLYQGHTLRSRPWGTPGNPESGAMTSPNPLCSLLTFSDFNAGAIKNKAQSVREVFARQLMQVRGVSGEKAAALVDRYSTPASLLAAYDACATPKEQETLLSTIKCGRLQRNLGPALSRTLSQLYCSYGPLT
# Chain of UniProt Q96NY9 (Q96AY2 whole entry, chain 2 of 2, further chain): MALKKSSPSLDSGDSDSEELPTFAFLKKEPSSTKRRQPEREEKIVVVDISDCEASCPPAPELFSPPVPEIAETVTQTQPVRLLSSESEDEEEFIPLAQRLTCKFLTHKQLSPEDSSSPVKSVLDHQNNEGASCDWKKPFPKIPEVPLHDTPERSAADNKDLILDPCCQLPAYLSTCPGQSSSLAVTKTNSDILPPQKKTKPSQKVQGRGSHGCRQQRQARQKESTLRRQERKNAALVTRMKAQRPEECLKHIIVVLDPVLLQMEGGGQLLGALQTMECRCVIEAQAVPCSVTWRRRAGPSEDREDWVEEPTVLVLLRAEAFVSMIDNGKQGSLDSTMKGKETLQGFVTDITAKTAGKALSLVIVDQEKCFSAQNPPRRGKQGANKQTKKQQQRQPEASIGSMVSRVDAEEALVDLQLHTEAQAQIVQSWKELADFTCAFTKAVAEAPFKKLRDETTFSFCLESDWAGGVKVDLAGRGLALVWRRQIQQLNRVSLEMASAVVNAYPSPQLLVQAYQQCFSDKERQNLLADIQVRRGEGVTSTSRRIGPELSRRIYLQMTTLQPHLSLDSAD
binder,measurement,value
B1,"MUS81-EME1-mediated incision of psoralen ICL-damaged 3' ssDNA branch substrate (1.5 nM MUS81-EME1; FANCA 0-20 nM), fold stimulation",14 fold
same,"MUS81-EME1-mediated incision of undamaged DNA (1.5 nM MUS81-EME1; FANCA 0-20 nM): enhanced up to 5 nM FANCA (Phase I), inhibited from 10 to 20 nM and abrogated at 20 nM FANCA (Phase II)",3 fold
